Experimental data published in patent publication US20110052564A1.

What was measured:
[1] = target: cdH5-0, crossbeta H5 (A/Vietnam/1203/04) after centrifugation (influenza virus H5N1 strain A/Vietnam/1203/04); assay: ELISA epitope scanning, immobilized H5 form; scaled
[2] = target: crossbeta H5-0 (dH5-0), H5 of H5N1 strain A/Vietnam/1203/04 stock as supplied by Protein Sciences (influenza virus H5N1 strain A/Vietnam/1203/04); assay: as above
[3] = target: fdH5-0, ultrafiltrated dH5-0 (H5 of A/Vietnam/1203/04) (influenza virus H5N1 strain A/Vietnam/1203/04); assay: as above
[4] = target: misfolded dH5-I (H5 of A/Vietnam/1203/04, heat cycling at pH 7) (influenza virus H5N1 strain A/Vietnam/1203/04); assay: as above
[5] = target: misfolded dH5-II (H5 of A/Vietnam/1203/04, heat cycling at pH 2) (influenza virus H5N1 strain A/Vietnam/1203/04); assay: as above
[6] = target: misfolded dH5-III (H5 of A/Vietnam/1203/04, prolonged incubation at 5 C below the melting temperature) (influenza virus H5N1 strain A/Vietnam/1203/04); assay: as above
[7] = target: non-treated H5 of H5N1 strain A/Vietnam/1203/04 (nH5), Protein Sciences (influenza virus H5N1 strain A/Vietnam/1203/04); assay: ELISA, coated nH5 overlayed with 1:2000 diluted antibody
[8] = target: cdH5-0, crossbeta H5 (A/Vietnam/1203/04) after centrifugation (influenza virus H5N1 strain A/Vietnam/1203/04); assay: ELISA, immobilized H5 form, tPA with excess epsilon-amino caproic acid
[9] = target: crossbeta H5-0 (dH5-0), H5 of H5N1 strain A/Vietnam/1203/04 stock as supplied by Protein Sciences (influenza virus H5N1 strain A/Vietnam/1203/04); assay: as above
[10] = target: fdH5-0, ultrafiltrated dH5-0 (H5 of A/Vietnam/1203/04) (influenza virus H5N1 strain A/Vietnam/1203/04); assay: as above
[11] = target: misfolded dH5-II (H5 of A/Vietnam/1203/04, heat cycling at pH 2) (influenza virus H5N1 strain A/Vietnam/1203/04); assay: as above
[12] = target: cdH5-0, crossbeta H5 (A/Vietnam/1203/04) after centrifugation (influenza virus H5N1 strain A/Vietnam/1203/04); assay: ELISA, immobilized H5 form; normalized to cdH5-0
[13] = target: fdH5-0, ultrafiltrated dH5-0 (H5 of A/Vietnam/1203/04) (influenza virus H5N1 strain A/Vietnam/1203/04); assay: ELISA, immobilized H5 form; normalized to cdH5-0
[14] = target: misfolded dH5-I (H5 of A/Vietnam/1203/04, heat cycling at pH 7) (influenza virus H5N1 strain A/Vietnam/1203/04); assay: ELISA, immobilized H5 form; normalized to cdH5-0
[15] = target: misfolded dH5-II (H5 of A/Vietnam/1203/04, heat cycling at pH 2) (influenza virus H5N1 strain A/Vietnam/1203/04); assay: ELISA, immobilized H5 form; normalized to cdH5-0
[16] = target: misfolded dH5-III (H5 of A/Vietnam/1203/04, prolonged incubation at 5 C below the melting temperature) (influenza virus H5N1 strain A/Vietnam/1203/04); assay: ELISA, immobilized H5 form; normalized to cdH5-0
[17] = target: crossbeta H5-0 (dH5-0), H5 of H5N1 strain A/Vietnam/1203/04 stock as supplied by Protein Sciences (influenza virus H5N1 strain A/Vietnam/1203/04); assay: ELISA, immobilized H5 form; normalized to cdH5-0; average of two measurements

Row | Substance | relative affinity kD [1] [a.u.] | relative affinity kD [2] [a.u.] | relative affinity kD [3] [a.u.] | relative affinity kD [4] [a.u.] | relative affinity kD [5] [a.u.] | relative affinity kD [6] [a.u.] | also measured
1 | Rockland anti-H5 A/VN/1203/04 mouse monoclonal antibody, catalogue number 200-301-979 | 100 | 103 | 97 | 125 | 83 | 126 | 
2 | Rockland anti-H5 A/VN/1203/04 mouse monoclonal antibody, catalogue number 200-301-975 | 100 | 102 | 103 | 47 | 79 | 78 | ELISA signal at 1:2000 antibody dilution [7]: 1.5
3 | Rockland anti-H5 A/VN/1203/04 mouse monoclonal antibody, catalogue number 200-301-977 | 100 | 98 | 93 | 0 | 0 | 35 | 
4 | tissue type plasminogen activator (tPA; Actilyse, Boehringer-Ingelheim) (from UniProt P00750 36-562) (enzyme) |  |  |  |  |  |  | Kd [8]: 102 nM; Kd [9]: 96 nM; Kd [10]: 342 nM; Kd [11]: 19 nM
5 | fourth and fifth finger domain of fibronectin (Fn F4-5) with C-terminal FLAG-tag (from UniProt P02751 184-273) |  |  |  |  |  |  | Normalized affinity, kD (%) [12]: 100%; Normalized affinity, kD (%) [13]: 69%; Normalized affinity, kD (%) [14]: 0%; Normalized affinity, kD (%) [15]: 88%; Normalized affinity, kD (%) [16]: 6%; Normalized affinity, kD (%) [17]: 103%
6 | Rockland anti-H5 A/VN/1203/04 mouse monoclonal antibody, catalogue number 200-301-976 | 100 | 88 | 105 | 0 | 132 | 127 | 
7 | Rockland anti-H5 A/VN/1203/04 mouse monoclonal antibody, catalogue number 200-301-978 | 100 | 85 | 107 | 115 | 31 | 112 | 
